The series deals with the molecule itself. The series can be described thus: SEC; analytical gel filtration on Progel-TSK W-3047 (HPLC), 0.1 M sodium phosphate buffer pH 7.0, 1 mL/min; calibrated with standards of 6.5-160 kDa; apparent mass 135.33 ± 3.5 kDa against 48.5 kDa from the sequence. For orientation: SEC sorts molecules by how far they enter the pores of the column.

B1: Cupincin (hypothetical protein OsI_13867) (enzyme, UniProt B8AL97 35-470, looked up)
chain: SRRGEREEEDERRRHGGEGGRPYHFGEESFRHWTRTRHGRFSVLERFPDEQVVGAAVGGYRVAVLEAAPRAFLQPSHYDADEVFYVKEGEGVIVLLREGRKESFCVREGDAMVIPAGAIVYSANTHSSKWFRVVMLLNPVSTPGHFEEYFPVGGDRPESFFSAFSDDVLQAAFNTRREELEKVFERQREGGEITTAPEEQIRELSKSCSRGGGGGSGSEWEIKPSSLTGKSPYFSNNHGKLFELTGDECRHLKKLDLQIGLANITRGSMIAPNYNTRATKLAVVLQGSGYFEMACPHVSGGGSSERREREREHGRRREEEQGEEEHGERGEKARRYHKVRAQVREGSVIVIPASHPATIVASEGESLAVVCFFVGANHDEKVFLAGRNSPLRQLDDPAKKLVFGGSAAREADRVLAAQPEQILLRGPHGRGSVSDM
notes: Cupincin, hypothetical protein OsI_13867 of Oryza sativa L., 436 residues and 48492.94 Da in the database entry; The native protein runs in SDS-PAGE as three polypeptides (about 34.5, 26.9 and 15.9 kDa) that all match OsI_13867; also called purified protease from rice bran; source: purified from rice bran (variety IR-64): ammonium sulphate fractionation (40-80%), Sephadex G-150
One may read the stoichiometry N as the number of molecules, sites or subunits per partner or assembly. As for B1, the “stoichiometry N” value was found to be 3.

(Values after paper PMC4827828, “Cupincin: A Unique Protease Purified from Rice (Oryza sativa L.) Bran Is a New Member of the Cupin Superfamily” (PLoS ONE, 2016).)
